Measurements as given in paper PMC11109279, “Heliorhodopsin-mediated light-modulation of ABC transporter” (Nature Communications, 2024).
Where a chain is given by its changes, count along the chain named.

Experiments:
[1] = target: heterodimeric multidrug resistance ABC transporter OmrDE (Omithinimicrobium cerasi strain USBA17B2); assay: ITC; OcHeR injected into the Omr protein; 25 °C, 500 rpm; buffer SD; MicroCal ITC200; one site binding model (sequential binding site model for R233Q); perfect saturation was not achieved
[2] = target: T1, OmrDE (Ornithinimicrobium cerasi, UniProt A0A285VW85+A0A285VWG3); assay: ATP hydrolysis, colorimetric Pi (phosphomolybdate); format: biochemical
T1 construct: gene SAMN05421879_12812; co-expressed heterodimer of two half-transporters; codon-optimized, E. coli C43(DE3), DDM-solubilized, Ni-NTA

[3] = target: T2, OmrDE with OcHeR WT (Ornithinimicrobium cerasi, UniProt A0A285VW85+A0A285VWG3); assay: ATP hydrolysis, colorimetric Pi (phosphomolybdate); format: biochemical; conditions: read-out: Km (mM, ATP); Mg-ATP (MgSO4:ATP 1.5:1), pH 7.0, 25 °C, 0.02% DDM; OcHeR WT 1:1, dark
T2 construct: gene SAMN05421879_12812; E. coli C43(DE3), DDM, Ni-NTA; with Heliorhodopsin
T2 sequence (A0A285VW85 1-577): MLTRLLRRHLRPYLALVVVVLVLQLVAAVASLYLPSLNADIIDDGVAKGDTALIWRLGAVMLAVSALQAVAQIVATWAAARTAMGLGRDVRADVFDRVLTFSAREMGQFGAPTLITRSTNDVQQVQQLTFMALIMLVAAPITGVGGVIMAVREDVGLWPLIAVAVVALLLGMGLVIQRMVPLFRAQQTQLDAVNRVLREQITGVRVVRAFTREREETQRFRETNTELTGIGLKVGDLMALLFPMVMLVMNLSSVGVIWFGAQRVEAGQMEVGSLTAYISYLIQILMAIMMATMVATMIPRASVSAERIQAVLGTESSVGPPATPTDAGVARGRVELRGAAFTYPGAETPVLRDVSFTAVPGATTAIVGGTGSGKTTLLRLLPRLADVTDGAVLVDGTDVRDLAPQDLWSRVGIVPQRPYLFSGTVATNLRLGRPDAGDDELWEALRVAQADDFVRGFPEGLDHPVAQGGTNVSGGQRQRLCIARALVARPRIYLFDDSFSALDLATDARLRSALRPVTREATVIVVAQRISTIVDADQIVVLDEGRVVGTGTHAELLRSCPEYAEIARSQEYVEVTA
T2 sequence (A0A285VWG3 1-661): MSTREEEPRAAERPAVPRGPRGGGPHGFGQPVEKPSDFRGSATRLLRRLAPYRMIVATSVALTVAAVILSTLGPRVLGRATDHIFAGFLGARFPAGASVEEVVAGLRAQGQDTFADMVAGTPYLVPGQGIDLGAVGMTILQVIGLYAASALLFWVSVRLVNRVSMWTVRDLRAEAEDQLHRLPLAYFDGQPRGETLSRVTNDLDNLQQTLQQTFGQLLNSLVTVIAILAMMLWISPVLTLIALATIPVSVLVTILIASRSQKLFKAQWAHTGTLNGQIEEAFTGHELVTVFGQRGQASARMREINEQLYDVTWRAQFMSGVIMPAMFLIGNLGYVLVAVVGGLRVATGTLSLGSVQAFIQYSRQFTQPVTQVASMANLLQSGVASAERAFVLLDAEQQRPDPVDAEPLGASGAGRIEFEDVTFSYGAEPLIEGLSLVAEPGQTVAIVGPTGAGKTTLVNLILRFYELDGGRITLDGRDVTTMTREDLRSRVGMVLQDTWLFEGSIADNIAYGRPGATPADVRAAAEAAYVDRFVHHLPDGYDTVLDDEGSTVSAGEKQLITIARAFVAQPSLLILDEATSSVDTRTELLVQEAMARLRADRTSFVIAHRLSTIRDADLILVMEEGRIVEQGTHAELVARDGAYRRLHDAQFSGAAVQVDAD
T2 sequence (A0A285W045 1-266 partner): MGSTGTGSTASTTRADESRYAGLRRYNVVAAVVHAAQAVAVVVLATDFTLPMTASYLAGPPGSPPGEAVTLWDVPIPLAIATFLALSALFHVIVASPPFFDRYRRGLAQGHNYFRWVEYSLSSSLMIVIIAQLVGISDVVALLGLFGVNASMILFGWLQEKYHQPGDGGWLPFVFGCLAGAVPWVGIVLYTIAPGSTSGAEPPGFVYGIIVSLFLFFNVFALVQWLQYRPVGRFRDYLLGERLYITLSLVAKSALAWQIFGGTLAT
Text: ATP hydrolysis, colorimetric Pi (phosphomolybdate) on OmrDE with OcHeR WT

[4] = target: T1, OmrDE; assay: ATP hydrolysis, colorimetric Pi (phosphomolybdate); format: biochemical; conditions: read-out: Km (mM, ATP); Mg-ATP (MgSO4:ATP 1.5:1), pH 7.0, 25 °C, 0.02% DDM; no OcHeR
Text: ATP hydrolysis, colorimetric Pi (phosphomolybdate) on OmrDE

[5] = target: T3, OcHeR (Ornithinimicrobium cerasi, UniProt A0A285W045); assay: UV-visible absorption spectroscopy of purified pigment; format: binding; conditions: covalent; Schiff base to K252; neutral pH
T3 construct: gene SAMN05421879_12810; purified from E. coli C43(DE3) grown with all-trans-retinal; DDM, Ni-NTA; homodimer
T3 sequence (A0A285W045 1-266): T2 sequence (A0A285W045 1-266 partner)

[6] = target: Glu118 (position 118, …); assay: UV-vis; conditions: not stated for the titration. Purified protein was kept in buffer SD with 150 mM NaCl.; not stated for the titration. Purification buffer SD was 150 mM NaCl, 50 mM Tris-HCl pH 7.0, 0.02% DDM. pH was adjusted by adding HCl and NaOH.; Dark/ground state, retinal-bound, detergent-solubilised, without OmrDE
[7] = target: T4, heterodimeric multidrug resistance ABC transporter OmrDE (Omithinimicrobium cerasi strain USBA17B2, UniProt A0A285VW85 1-577; A0A285VWG3 1-661); assay: cell-based or functional assay
T4 sequence (looked up) 1: T2 sequence (A0A285VW85 1-577)
T4 sequence (looked up) 2: T2 sequence (A0A285VWG3 1-661)

[8] = target: T5, Omithinimicrobium cerasi strain USBA17B2 heliorhodopsin (OcHeR) WT (Omithinimicrobium cerasi strain USBA17B2, UniProt A0A285W045 1-266, retinal Schiff base linked to K252); assay: ITC; OcHeR injected into the Omr protein; 25 °C, 500 rpm; buffer SD; MicroCal ITC200; one site binding model (sequential binding site model for R233Q); perfect saturation was not achieved; conditions: both partners purified
T5 construct: gene codon-optimized for E. coli and chemically synthesized; source: E. coli C43 (DE3), purified (DDM-solubilized membrane fraction, Ni2+-NTA agarose)
T5 sequence (looked up): T2 sequence (A0A285W045 1-266 partner)

## OcHeR W225A (natural protein)
[1]
  Kd: 16.9 µM
  dH: 11.8 kcal/mol

## N=C(N)c1ccc(-c2cc3ccc(C(=N)N)cc3[nH]2)cc1 [DAPI]
[2]
  IC50: 47.4 µM

## OcHeR R235Q (natural protein)
[1]
  Kd: 26 µM
  dH: 2.4 kcal/mol

## OcHeR R229Q (natural protein)
[1]
  Kd: 5.1 µM
  dH: 8.6 kcal/mol

## OcHeR R233Q (natural protein)
[1]
  Kd of the first binding (sequential binding site model): 42.9 µM
  Kd of the second binding (sequential binding site model): 25.3 µM
  dH of the first binding (sequential binding site model): 5.9 kcal/mol
  dH of the second binding (sequential binding site model): 38.7 kcal/mol

## Nc1ncnc2c1ncn2[C@@H]1O[C@H](COP(=O)(O)OP(=O)(O)OP(=O)(O)O)[C@@H](O)[C@H]1O [ATP]
[3]
  Km: 10.4 ± 7 mM
[4]
  Km: 19.2 ± 12.3 mM

## CC1=C(/C=C/C(C)=C/C=C/C(C)=C/C=O)C(C)(C)CCC1 [all-trans-retinal]
[5]
  retinal attachment site: retinal Schiff base linked to K252 of OcHeR

B1: Heliorhodopsin OcHeR (Ornithinimicrobium cerasi strain USBA17B2 (spelled 'Omithinimicrobium cerasi' in the main text)) (protein)
chain: T2 sequence (A0A285W045 1-266 partner)
[6]
  pKa: 2.9

B2: OcHeR R102Q (natural protein)
chain: T2 sequence (A0A285W045 1-266 partner) with R102Q
modifications: retinal Schiff base linked to K252
[7]
  kcat/Km of ATP hydrolysis of purified OmrDE with OcHeR R102Q (1:1), absence of light: 21.4 M^−1 S^−1
  kcat/Km of ATP hydrolysis of purified OmrDE with OcHeR R102Q (1:1), presence of light (532 nm): 18.1 M^−1 S^−1

B3: NBD-truncated OmrDE (OmrD^tcE^tc) (complex)
chain 1: MLTRLLRRHLRPYLALVVVVLVLQLVAAVASLYLPSLNADIIDDGVAKGDTALIWRLGAVMLAVSALQAVAQIVATWAAARTAMGLGRDVRADVFDRVLTFSAREMGQFGAPTLITRSTNDVQQVQQLTFMALIMLVAAPITGVGGVIMAVREDVGLWPLIAVAVVALLLGMGLVIQRMVPLFRAQQTQLDAVNRVLREQITGVRVVRAFTREREETQRFRETNTELTGIGLKVGDLMALLFPMVMLVMNLSSVGVIWFGAQRVEAGQMEVGSLTAYISYLIQILMAIMMATMVATMIPRASVSAERIQAVLGTESSVGPPATPTDAGVARGR
chain 2: MSTREEEPRAAERPAVPRGPRGGGPHGFGQPVEKPSDFRGSATRLLRRLAPYRMIVATSVALTVAAVILSTLGPRVLGRATDHIFAGFLGARFPAGASVEEVVAGLRAQGQDTFADMVAGTPYLVPGQGIDLGAVGMTILQVIGLYAASALLFWVSVRLVNRVSMWTVRDLRAEAEDQLHRLPLAYFDGQPRGETLSRVTNDLDNLQQTLQQTFGQLLNSLVTVIAILAMMLWISPVLTLIALATIPVSVLVTILIASRSQKLFKAQWAHTGTLNGQIEEAFTGHELVTVFGQRGQASARMREINEQLYDVTWRAQFMSGVIMPAMFLIGNLGYVLVAVVGGLRVATGTLSLGSVQAFIQYSRQFTQPVTQVASMANLLQSGVASAERAFVLLDAEQQRPDPVDAEPLGASGAGR
[8]
  Kd: 38.9 µM
